Data as given in IntAct's records for PubMed 21081649.

B1: NAD-dependent protein deacetylase sirtuin-2 (Homo sapiens), Q8IXJ6-2 (parent)
chain: MDFLRNLFSQTLSLGSQKERLLDELTLEGVARYMQSERCRRVICLVGAGISTSAGIPDFRSPSTGLYDNLEKYHLPYPEAIFEISYFKKHPEPFFALAKELYPGQFKPTICHYFMRLLKDKGLLLRCYTQNIDTLERIAGLEQEDLVEAHGTFYTSHCVSASCRHEYPLSWMKEKIFSEVTPKCEDCQSLVKPDIVFFGESLPARFFSCMQSDFLKVDLLLVMGTSLQVQPFASLISKAPLSTPRLLINKEKAGQSDPFLGMIMGLGGGMDFDSKKAYRDVAWLGECDQGCLALAELLGWKKELEDLVRREHASIDAQSGAGVPNPSTSASPKKSPPPAKDEARTTEREKPQ

Variants of: B1
Settings: with h4_human H4C16, P62805

Variant | effect of a mutation on the interaction
MDFARNLFSQTASLGSQKERLLDELTLEGVARYMQSERCRRVICLVGAGISTSAGIPDFRSPSTGLYDNLEKYHLPYPEAIFEISYFKKHPEPFFALAKELYPGQFKPTICHYFMRLLKDKGLLLRCYTQNIDTLERIAGLEQEDLVEAYGTFYTSHCVSASCRHEYPLSWMKEKIFSEVTPKCEDCQSLVKPDIVFFGESLPARFFSCMQSDFLKVDLLLVMGTSLQVQPFASLISKAPLSTPRLLINKEKAGQSDPFLGMIMGLGGGMDFDSKKAYRDVAWLGECDQGCLALAELLGWKKELEDLVRREHASIDAQSGAGVPNPSTSASPKKSPPPAKDEARTTEREKPQ [L4A;L12A;H150Y] | increasing interaction
